One test concerns the target T1, mouse serum albumin (mouse, UniProt P07724 25-608).
T1 construct: Biotinylated (about 2 biotins per molecule) in the capture ELISA; unlabelled on the CM5 chip; also called MSA; biotinylated MSA
In words: capture ELISA: dAb on protein A, biotinylated MSA, streptavidin HRP. (In general: An ELISA detects its analyte on a solid surface through an enzyme-linked reagent.)

The target in test [1] is T2, EGFR expressed on A431 cells (UniProt P00533 25-1210, limits assumed).
T2 construct: whole, on cells
The experiment in a line: EGFR receptor binding assay: inhibition of biotinylated EGF binding to A431 cells; average.

Test [2] concerns the target EGFR (as used for the KD column of Table 10) (UniProt P00533 25-645, limits assumed). In words: method not described.
The target in test [3] is T2, EGFR expressed on A431 cells. The experiment in a line: EGFR receptor binding assay: inhibition of biotinylated EGF binding to A431 cells; highest value obtained.
Test [4] has the same target. In words: cell-based or functional assay.
For test [5] the target is unchanged. In words: EGFR receptor binding assay: inhibition of biotinylated EGF binding to A431 cells; lowest value obtained.
Test [6] addresses T3, human TNFR1 (human p55 TNF receptor) (human, UniProt P19438 30-211, limits assumed).
T3 construct: also called TNF receptor 1; TNFα receptor
T3 sequence: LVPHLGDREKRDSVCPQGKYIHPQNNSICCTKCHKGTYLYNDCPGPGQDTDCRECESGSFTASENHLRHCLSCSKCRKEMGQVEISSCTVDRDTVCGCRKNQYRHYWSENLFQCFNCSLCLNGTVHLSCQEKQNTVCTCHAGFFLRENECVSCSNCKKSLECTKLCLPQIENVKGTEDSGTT
In words: selection from dAb libraries.

Experimental findings from patent US20080241166A1 (DOMANTIS, published 2008) are described below.

T1 sequence (P07724 25-608 limits assumed): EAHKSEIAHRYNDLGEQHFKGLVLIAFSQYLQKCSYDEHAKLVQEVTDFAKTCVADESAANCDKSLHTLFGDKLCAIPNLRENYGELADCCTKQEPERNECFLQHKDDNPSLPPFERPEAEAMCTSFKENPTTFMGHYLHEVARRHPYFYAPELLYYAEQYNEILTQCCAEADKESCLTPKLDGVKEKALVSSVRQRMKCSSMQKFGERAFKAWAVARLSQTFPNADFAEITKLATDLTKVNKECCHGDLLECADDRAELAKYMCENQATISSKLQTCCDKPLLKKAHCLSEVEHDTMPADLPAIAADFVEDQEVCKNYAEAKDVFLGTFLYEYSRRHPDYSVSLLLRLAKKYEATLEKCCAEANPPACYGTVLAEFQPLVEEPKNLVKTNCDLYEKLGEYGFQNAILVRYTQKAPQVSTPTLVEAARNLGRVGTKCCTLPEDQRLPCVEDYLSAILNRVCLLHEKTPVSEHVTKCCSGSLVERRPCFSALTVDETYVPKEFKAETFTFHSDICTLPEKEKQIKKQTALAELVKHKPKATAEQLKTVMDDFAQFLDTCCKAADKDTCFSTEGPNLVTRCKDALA

B1: anti-serum albumin VH dAb, clones 8, 10 (other)
VH: EVQLLESGGGLVQPGGSLRLSCAASGFTFWVYQMDWVRQAPGKGLEWVSSISAFGAKTLYADSVKGRFTISRDNSKNTLYLQMNSLRAEDTAVYYCAKLSGKFDYWGQGTLVTVSS
notes: dAb
As for B1, the binding result with mouse serum albumin was “binds”.

B2: anti-serum albumin VH dAb, clone 36 (other)
VH: EVQLLESGGGLVQPGGSLRLSCAASGFTFWSYQMTWVRQAPGKGLEWVSSISSFGSSTLYADSVKGRFTISRDNSKNTLYLQMNSLRAEDTAVYYCAKGRDHNYSLFDYWGQGTLVTVSS
notes: ranges to be checked
B2: the binding result in the test with mouse serum albumin is “binds”.

B3: DOM16-39-109 (other)
chain: DIQMTQSPTSLSASVGDRVTITCRASQWIGNLLDWYQQKPGEAPKLLIYYASFLQSGVPSRFSGGGFGTDFTLTISSLQPEDFATYYCQQANPAPLTFGQGTKVEIKR
notes: anti-EGFR dAb
For B3, the IC50 (as a rule, the point on the concentration scale where inhibition reaches its midpoint) in test [1] came to 1.05 nM. For the same molecule, the affinity in test [2], expressed as Kd, was 1.01 nM. Further, the IC50 in test [3] worked out at 1.47 nM. Besides, in test [4], the “KINASE ASSAY IC50, average” value was 8.69 nM; the “KINASE ASSAY IC50, highest value” amounted to 11.1 nM; the “KINASE ASSAY IC50, lowest value” was 6.82 nM. The same molecule showed an IC50 in test [5] of 0.746 nM.

B4: TAR2h-5 VH dAb (other)
VH: EVQLLESGGGLVQPGGSLRLSCAASGFTFDLYNMFWVRQAPGKGLEWVSFISQTGRLTWYADSVKGRFTISRDNSKNTLYLQMNSLRAEDTAVYYCAKTLEDFDYWGQGTLVTVSS
notes: TAR2-5 and TAR2h-5 are used for the same dAb; also called TAR2-5
Regarding B4, the binding result in test [6] was “binds”.
